IntAct's records for PubMed 35512704

B1: Mothers against decapentaplegic homolog 4 (Homo sapiens), Q13485 (parent)
chain: MDNMSITNTPTSNDACLSIVHSLMCHRQGGESETFAKRAIESLVKKLKEKKDELDSLITAITTNGAHPSKCVTIQRTLDGRLQVAGRKGFPHVIYARLWRWPDLHKNELKHVKYCQYAFDLKCDSVCVNPYHYERVVSPGIDLSGLTLQSNAPSSMMVKDEYVHDFEGQPSLSTEGHSIQTIQHPPSNRASTETYSTPALLAPSESNATSTANFPNIPVASTSQPASILGGSHSEGLLQIASGPQPGQQQNGFTGQPATYHHNSTTTWTGSRTAPYTPNLPHHQNGHLQHHPPMPPHPGHYWPVHNELAFQPPISNHPAPEYWCSIAYFEMDVQVGETFKVPSSCPIVTVDGYVDPSGGDRFCLGQLSNVHRTEAIERARLHIGKGVQLECKGEGDVWVRCLSDHAVFVQSYYLDREAGRAPGDAVHKIYPSAYIKVFDLRQCHRQMQQQAATAQAAAAAQAAAVAGNIPGPGSVGGIAPAISLSAAAGIGVDDLRRLCILRMSFVKGWGPDYPRQSIKETPCWIEIHLHRALQLLDEVLHTMPIADPQPLD

Variants of: B1
Conditions: with smad3_human SMAD3, P84022

Variant	effect of a mutation on the interaction
D351H	disrupting interaction strength

Variants of: B1
Conditions: with agap2_human AGAP2, Q99490

Variant	effect of a mutation on the interaction
D351H	with no effect

Variants of: B1
Conditions: with ajuba_human AJUBA

Variant	effect of a mutation on the interaction
D351H	with no effect

Variants of: B1
Conditions: with akts1_human AKT1S1, Q96B36

Variant	effect of a mutation on the interaction
D351H	with no effect

Variants of: B1
Conditions: with akt2_human AKT2, P31751
Chain of akt2_human AKT2, P31751 (P31751 whole entry): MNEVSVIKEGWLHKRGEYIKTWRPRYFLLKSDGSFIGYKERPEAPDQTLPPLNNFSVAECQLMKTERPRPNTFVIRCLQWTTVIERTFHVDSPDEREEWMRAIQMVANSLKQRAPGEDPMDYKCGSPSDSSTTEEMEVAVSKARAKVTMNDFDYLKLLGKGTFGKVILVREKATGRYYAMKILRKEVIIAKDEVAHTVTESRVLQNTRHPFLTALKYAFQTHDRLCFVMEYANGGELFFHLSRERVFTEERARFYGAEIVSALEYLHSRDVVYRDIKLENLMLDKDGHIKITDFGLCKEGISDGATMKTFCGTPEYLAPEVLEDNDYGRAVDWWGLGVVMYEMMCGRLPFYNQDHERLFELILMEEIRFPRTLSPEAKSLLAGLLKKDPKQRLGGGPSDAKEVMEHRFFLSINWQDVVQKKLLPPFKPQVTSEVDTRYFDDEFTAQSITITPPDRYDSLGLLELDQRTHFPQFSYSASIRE

Variant	effect of a mutation on the interaction
D351H	with no effect

Variants of: B1
Conditions: with alk_human ALK

Variant	effect of a mutation on the interaction
D351H	with no effect

Variants of: B1
Conditions: with aph1a_human APH1A

Variant	effect of a mutation on the interaction
D351H	with no effect

Variants of: B1
Conditions: with arnt_human ARNT

Variant	effect of a mutation on the interaction
D351H	with no effect

Variants of: B1
Conditions: with arc1a_human ARPC1A

Variant	effect of a mutation on the interaction
D351H	with no effect

Variants of: B1
Conditions: with asxl1_human ASXL1, Q8IXJ9

Variant	effect of a mutation on the interaction
D351H	with no effect

Variants of: B1
Conditions: with atpb_human ATP5F1B

Variant	effect of a mutation on the interaction
D351H	with no effect

Variants of: B1
Conditions: with aurkb_human AURKB

Variant	effect of a mutation on the interaction
D351H	with no effect

Variants of: B1
Conditions: with ufo_human AXL

Variant	effect of a mutation on the interaction
D351H	with no effect

Variants of: B1
Conditions: with za2g_human AZGP1, P25311

Variant	effect of a mutation on the interaction
D351H	with no effect

Variants of: B1
Conditions: with b2mg_human B2M

Variant	effect of a mutation on the interaction
D351H	with no effect

Variants of: B1
Conditions: with becn1_human BECN1, Q14457

Variant	effect of a mutation on the interaction
D351H	with no effect

Variants of: B1
Conditions: with birc2_human BIRC2, Q13490

Variant	effect of a mutation on the interaction
D351H	with no effect

Variants of: B1
Conditions: with braf_human BRAF

Variant	effect of a mutation on the interaction
D351H	with no effect

Variants of: B1
Conditions: with baba2_human BABAM2, Q9NXR7

Variant	effect of a mutation on the interaction
D351H	with no effect

Variants of: B1
Conditions: with btg1_human BTG1, P62324

Variant	effect of a mutation on the interaction
D351H	with no effect

Variants of: B1
Conditions: with cbl_human CBL

Variant	effect of a mutation on the interaction
D351H	with no effect

Variants of: B1
Conditions: with cblb_human CBLB

Variant	effect of a mutation on the interaction
D351H	with no effect

Variants of: B1
Conditions: with ccnd1_human CCND1, P24385

Variant	effect of a mutation on the interaction
D351H	with no effect

Variants of: B1
Conditions: with ccnd2_human CCND2, P30279
Chain of ccnd2_human CCND2, P30279 (P30279 whole entry): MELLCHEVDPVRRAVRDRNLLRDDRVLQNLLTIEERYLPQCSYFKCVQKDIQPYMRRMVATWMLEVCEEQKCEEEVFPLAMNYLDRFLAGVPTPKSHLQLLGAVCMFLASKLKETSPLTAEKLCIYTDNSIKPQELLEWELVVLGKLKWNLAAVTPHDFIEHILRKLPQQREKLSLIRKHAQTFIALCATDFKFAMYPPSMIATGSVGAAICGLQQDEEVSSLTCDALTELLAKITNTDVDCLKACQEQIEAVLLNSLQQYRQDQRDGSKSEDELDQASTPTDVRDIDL

Variant	effect of a mutation on the interaction
D351H	with no effect

Variants of: B1
Conditions: with ccnd3_human CCND3, P30281

Variant	effect of a mutation on the interaction
D351H	with no effect

Variants of: B1
Conditions: with ccne1_human CCNE1, P24864

Variant	effect of a mutation on the interaction
D351H	with no effect

Variants of: B1
Conditions: with cd44_human CD44, P16070

Variant	effect of a mutation on the interaction
D351H	with no effect

Variants of: B1
Conditions: with cd79b_human CD79B

Variant	effect of a mutation on the interaction
D351H	with no effect

Variants of: B1
Conditions: with cdk4_human CDK4, P11802
Chain of cdk4_human CDK4, P11802 (P11802 whole entry): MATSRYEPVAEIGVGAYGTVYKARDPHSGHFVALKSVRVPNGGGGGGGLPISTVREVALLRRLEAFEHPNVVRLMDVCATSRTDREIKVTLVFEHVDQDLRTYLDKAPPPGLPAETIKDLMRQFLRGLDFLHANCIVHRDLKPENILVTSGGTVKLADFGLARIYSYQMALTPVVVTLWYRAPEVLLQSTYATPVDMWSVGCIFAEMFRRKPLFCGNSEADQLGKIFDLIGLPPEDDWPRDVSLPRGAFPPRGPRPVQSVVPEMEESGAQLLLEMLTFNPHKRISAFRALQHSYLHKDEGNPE

Variant	effect of a mutation on the interaction
D351H	with no effect

Variants of: B1
Conditions: with cdn2b_human CDKN2B

Variant	effect of a mutation on the interaction
D351H	with no effect

Variants of: B1
Conditions: with cdn2c_human CDKN2C

Variant	effect of a mutation on the interaction
D351H	with no effect

Variants of: B1
Conditions: with cebpa_human CEBPA

Variant	effect of a mutation on the interaction
D351H	with no effect

Variants of: B1
Conditions: with chd1l_human CHD1L

Variant	effect of a mutation on the interaction
D351H	with no effect

Variants of: B1
Conditions: with chd2_human CHD2, O14647

Variant	effect of a mutation on the interaction
D351H	with no effect

Variants of: B1
Conditions: with ch3l1_human CHI3L1, P36222

Variant	effect of a mutation on the interaction
D351H	with no effect

Variants of: B1
Conditions: with csf1r_human CSF1R

Variant	effect of a mutation on the interaction
D351H	with no effect

Variants of: B1
Conditions: with ctna1_human CTNNA1, P35221

Variant	effect of a mutation on the interaction
D351H	with no effect

Variants of: B1
Conditions: with ctnb1_human CTNNB1, P35222

Variant	effect of a mutation on the interaction
D351H	with no effect

Variants of: B1
Conditions: with cul3_human CUL3, Q13618

Variant	effect of a mutation on the interaction
D351H	with no effect

Variants of: B1
Conditions: with dicer_human DICER1, Q9UPY3

Variant	effect of a mutation on the interaction
D351H	with no effect

Variants of: B1
Conditions: with duox2_human DUOX2, Q9NRD8

Variant	effect of a mutation on the interaction
D351H	with no effect

Variants of: B1
Conditions: with e2f1_human E2F1, Q01094

Variant	effect of a mutation on the interaction
D351H	with no effect

Variants of: B1
Conditions: with e2f2_human E2F2, Q14209
Chain of e2f2_human E2F2, Q14209 (Q14209 whole entry): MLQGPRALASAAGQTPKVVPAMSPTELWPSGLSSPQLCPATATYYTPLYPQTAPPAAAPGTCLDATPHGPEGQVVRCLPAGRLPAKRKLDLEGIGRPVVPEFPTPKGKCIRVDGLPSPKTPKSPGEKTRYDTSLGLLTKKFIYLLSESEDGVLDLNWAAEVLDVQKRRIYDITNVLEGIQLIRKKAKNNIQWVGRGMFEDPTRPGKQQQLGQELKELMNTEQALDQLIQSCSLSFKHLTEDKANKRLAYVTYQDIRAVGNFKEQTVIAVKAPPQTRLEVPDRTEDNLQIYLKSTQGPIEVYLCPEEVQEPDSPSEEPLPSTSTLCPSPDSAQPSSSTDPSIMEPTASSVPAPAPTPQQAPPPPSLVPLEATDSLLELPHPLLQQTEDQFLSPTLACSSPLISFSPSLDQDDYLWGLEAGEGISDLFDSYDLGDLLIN

Variant	effect of a mutation on the interaction
D351H	with no effect

Variants of: B1
Conditions: with e2f3_human E2F3, O00716

Variant	effect of a mutation on the interaction
D351H	with no effect

Variants of: B1
Conditions: with e2f4_human E2F4, Q16254
Chain of e2f4_human E2F4, Q16254 (Q16254 whole entry): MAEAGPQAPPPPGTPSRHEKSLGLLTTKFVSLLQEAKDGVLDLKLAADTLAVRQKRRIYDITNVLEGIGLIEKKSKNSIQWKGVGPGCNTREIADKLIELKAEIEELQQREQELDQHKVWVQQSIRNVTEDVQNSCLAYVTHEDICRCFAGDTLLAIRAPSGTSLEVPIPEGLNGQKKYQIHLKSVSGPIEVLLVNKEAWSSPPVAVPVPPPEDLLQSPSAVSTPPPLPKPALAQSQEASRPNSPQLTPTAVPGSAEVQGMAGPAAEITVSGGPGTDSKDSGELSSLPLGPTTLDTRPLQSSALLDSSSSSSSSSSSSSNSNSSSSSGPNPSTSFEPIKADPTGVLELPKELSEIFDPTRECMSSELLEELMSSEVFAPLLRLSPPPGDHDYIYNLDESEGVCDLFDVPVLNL

Variant	effect of a mutation on the interaction
D351H	with no effect

Variants of: B1
Conditions: with e2f5_human E2F5, Q15329

Variant	effect of a mutation on the interaction
D351H	with no effect

Variants of: B1
Conditions: with if4e_human EIF4E

Variant	effect of a mutation on the interaction
D351H	with no effect

Variants of: B1
Conditions: with epha7_human EPHA7, Q15375

Variant	effect of a mutation on the interaction
D351H	with no effect

Variants of: B1
Conditions: with ephb1_human EPHB1, P54762

Variant	effect of a mutation on the interaction
D351H	with no effect

Variants of: B1
Conditions: with erbb3_human ERBB3, P21860

Variant	effect of a mutation on the interaction
D351H	with no effect

Variants of: B1
Conditions: with erbb4_human ERBB4, Q15303
Chain of erbb4_human ERBB4, Q15303 (Q15303 whole entry): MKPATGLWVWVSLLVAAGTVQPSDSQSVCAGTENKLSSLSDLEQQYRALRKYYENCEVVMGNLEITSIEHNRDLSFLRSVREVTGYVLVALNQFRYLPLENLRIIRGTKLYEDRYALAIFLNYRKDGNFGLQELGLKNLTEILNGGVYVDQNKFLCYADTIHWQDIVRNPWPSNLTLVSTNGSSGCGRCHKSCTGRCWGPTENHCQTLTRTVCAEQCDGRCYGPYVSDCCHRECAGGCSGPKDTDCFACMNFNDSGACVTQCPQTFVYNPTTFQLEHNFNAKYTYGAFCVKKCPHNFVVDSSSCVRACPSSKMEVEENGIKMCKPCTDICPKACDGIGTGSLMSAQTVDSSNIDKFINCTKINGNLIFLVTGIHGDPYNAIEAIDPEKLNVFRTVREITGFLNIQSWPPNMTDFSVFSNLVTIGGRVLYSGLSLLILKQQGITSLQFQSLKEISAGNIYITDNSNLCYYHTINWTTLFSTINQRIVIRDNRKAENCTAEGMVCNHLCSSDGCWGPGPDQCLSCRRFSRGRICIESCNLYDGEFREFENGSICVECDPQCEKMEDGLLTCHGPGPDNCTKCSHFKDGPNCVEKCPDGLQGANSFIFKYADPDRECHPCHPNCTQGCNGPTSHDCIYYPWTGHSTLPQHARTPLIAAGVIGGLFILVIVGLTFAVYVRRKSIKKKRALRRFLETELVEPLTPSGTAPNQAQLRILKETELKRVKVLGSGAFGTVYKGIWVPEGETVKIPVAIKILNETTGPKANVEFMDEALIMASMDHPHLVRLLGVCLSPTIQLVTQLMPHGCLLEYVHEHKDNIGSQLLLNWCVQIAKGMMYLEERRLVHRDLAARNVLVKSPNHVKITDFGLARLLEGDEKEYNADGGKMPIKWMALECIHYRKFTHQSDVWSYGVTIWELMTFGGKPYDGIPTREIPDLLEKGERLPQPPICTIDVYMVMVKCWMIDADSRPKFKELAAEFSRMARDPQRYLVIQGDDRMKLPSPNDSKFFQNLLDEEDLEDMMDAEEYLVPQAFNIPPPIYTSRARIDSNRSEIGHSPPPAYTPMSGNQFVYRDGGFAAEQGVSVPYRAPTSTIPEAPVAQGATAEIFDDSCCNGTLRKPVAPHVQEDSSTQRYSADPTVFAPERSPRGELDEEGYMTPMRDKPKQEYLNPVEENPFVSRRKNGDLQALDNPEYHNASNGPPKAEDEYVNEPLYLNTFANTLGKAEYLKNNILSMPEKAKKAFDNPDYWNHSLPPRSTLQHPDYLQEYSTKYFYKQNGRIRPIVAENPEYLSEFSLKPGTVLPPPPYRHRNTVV

Variant	effect of a mutation on the interaction
D351H	with no effect

Variants of: B1
Conditions: with esr1_human ESR1, P03372

Variant	effect of a mutation on the interaction
D351H	with no effect

Variants of: B1
Conditions: with etv1_human ETV1, P50549

Variant	effect of a mutation on the interaction
D351H	with no effect

Variants of: B1
Conditions: with fadd_human FADD

Variant	effect of a mutation on the interaction
D351H	with no effect

Variants of: B1
Conditions: with facd2_human FANCD2, Q9BXW9

Variant	effect of a mutation on the interaction
D351H	with no effect

Variants of: B1
Conditions: with fgf19_human FGF19, O95750
Chain of fgf19_human FGF19, O95750 (O95750 whole entry): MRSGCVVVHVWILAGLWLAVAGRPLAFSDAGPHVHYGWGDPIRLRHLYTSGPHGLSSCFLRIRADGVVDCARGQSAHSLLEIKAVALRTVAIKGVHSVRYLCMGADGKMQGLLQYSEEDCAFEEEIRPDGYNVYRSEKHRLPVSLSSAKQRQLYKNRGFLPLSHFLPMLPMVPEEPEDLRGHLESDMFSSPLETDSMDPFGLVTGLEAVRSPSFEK

Variant	effect of a mutation on the interaction
D351H	with no effect

Variants of: B1
Conditions: with fgfp1_human FGFBP1, Q14512

Variant	effect of a mutation on the interaction
D351H	with no effect

Variants of: B1
Conditions: with fgfr3_human FGFR3, P22607
Chain of fgfr3_human FGFR3, P22607 (P22607 whole entry, looked up): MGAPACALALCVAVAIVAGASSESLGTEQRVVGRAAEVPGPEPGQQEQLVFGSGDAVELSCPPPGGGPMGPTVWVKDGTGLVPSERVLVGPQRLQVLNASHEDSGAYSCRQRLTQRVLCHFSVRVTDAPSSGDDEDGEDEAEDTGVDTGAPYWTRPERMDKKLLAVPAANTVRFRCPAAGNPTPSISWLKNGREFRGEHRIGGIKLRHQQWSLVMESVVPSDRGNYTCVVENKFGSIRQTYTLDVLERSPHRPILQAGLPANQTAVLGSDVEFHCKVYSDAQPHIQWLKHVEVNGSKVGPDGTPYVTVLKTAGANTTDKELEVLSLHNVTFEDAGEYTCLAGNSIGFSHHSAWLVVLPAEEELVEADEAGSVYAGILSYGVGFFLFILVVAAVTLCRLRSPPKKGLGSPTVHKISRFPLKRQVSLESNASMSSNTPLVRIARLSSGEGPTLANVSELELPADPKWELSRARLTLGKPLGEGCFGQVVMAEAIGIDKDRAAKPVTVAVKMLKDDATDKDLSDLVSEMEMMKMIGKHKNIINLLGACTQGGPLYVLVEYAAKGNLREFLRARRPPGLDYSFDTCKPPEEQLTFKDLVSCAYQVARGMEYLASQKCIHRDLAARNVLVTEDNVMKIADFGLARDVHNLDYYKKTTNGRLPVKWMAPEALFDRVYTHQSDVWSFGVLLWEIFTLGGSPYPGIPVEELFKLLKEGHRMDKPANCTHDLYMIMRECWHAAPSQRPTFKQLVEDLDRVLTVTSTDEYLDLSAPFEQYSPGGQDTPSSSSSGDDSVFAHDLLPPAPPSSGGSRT

Variant	effect of a mutation on the interaction
D351H	with no effect

Variants of: B1
Conditions: with fgfr4_human FGFR4, P22455

Variant	effect of a mutation on the interaction
D351H	with no effect

Variants of: B1
Conditions: with fumh_human FH

Variant	effect of a mutation on the interaction
D351H	with no effect

Variants of: B1
Conditions: with foxo1_human FOXO1, Q12778
Chain of foxo1_human FOXO1, Q12778 (Q12778 whole entry): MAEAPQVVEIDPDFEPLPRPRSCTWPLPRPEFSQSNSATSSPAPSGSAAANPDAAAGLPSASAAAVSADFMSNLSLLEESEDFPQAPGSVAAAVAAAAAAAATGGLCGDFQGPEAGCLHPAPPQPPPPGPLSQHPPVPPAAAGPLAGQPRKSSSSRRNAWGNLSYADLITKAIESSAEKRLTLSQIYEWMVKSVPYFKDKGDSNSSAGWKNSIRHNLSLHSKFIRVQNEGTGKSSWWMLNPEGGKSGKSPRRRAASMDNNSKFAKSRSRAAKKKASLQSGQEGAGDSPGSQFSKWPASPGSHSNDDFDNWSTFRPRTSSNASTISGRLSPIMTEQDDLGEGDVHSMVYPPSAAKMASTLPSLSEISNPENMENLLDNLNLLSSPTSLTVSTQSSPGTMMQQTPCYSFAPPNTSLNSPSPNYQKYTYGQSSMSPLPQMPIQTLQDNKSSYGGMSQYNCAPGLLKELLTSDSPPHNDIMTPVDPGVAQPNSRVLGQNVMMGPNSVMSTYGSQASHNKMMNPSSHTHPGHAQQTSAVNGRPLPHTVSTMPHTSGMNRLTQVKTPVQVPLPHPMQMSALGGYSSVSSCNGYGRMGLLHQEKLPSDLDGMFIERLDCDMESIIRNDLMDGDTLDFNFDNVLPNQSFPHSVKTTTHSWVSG

Variant	effect of a mutation on the interaction
D351H	with no effect

Variants of: B1
Conditions: with foxo3_human FOXO3, O43524

Variant	effect of a mutation on the interaction
D351H	with no effect

Variants of: B1
Conditions: with gbra6_human GABRA6, Q16445

Variant	effect of a mutation on the interaction
D351H	with no effect

Variants of: B1
Conditions: with gata2_human GATA2, P23769

Variant	effect of a mutation on the interaction
D351H	with no effect

Variants of: B1
Conditions: with gata3_human GATA3, P23771

Variant	effect of a mutation on the interaction
D351H	with no effect

Variants of: B1
Conditions: with gna11_human GNA11, P29992

Variant	effect of a mutation on the interaction
D351H	with no effect

Variants of: B1
Conditions: with gna13_human GNA13, Q14344

Variant	effect of a mutation on the interaction
D351H	with no effect

Variants of: B1
Conditions: with gnaq_human GNAQ

Variant	effect of a mutation on the interaction
D351H	with no effect

Variants of: B1
Conditions: with grb7_human GRB7, Q14451

Variant	effect of a mutation on the interaction
D351H	with no effect

Variants of: B1
Conditions: with grm1_human GRM1, Q13255

Variant	effect of a mutation on the interaction
D351H	with no effect

Variants of: B1
Conditions: with grm3_human GRM3, Q14832

Variant	effect of a mutation on the interaction
D351H	with no effect

Variants of: B1
Conditions: with gsk3a_human GSK3A

Variant	effect of a mutation on the interaction
D351H	with no effect

Variants of: B1
Conditions: with hdac1_human HDAC1, Q13547

Variant	effect of a mutation on the interaction
D351H	with no effect

Variants of: B1
Conditions: with hdac3_human HDAC3, O15379

Variant	effect of a mutation on the interaction
D351H	with no effect

Variants of: B1
Conditions: with hgf_human HGF

Variant	effect of a mutation on the interaction
D351H	with no effect

Variants of: B1
Conditions: with h31_human H3C1, P68431

Variant	effect of a mutation on the interaction
D351H	with no effect

Variants of: B1
Conditions: with hlab_human HLA-B

Variant	effect of a mutation on the interaction
D351H	with no effect

Variants of: B1
Conditions: with rash_human HRAS

Variant	effect of a mutation on the interaction
D351H	with no effect

Variants of: B1
Conditions: with hs90a_human HSP90AA1, P07900

Variant	effect of a mutation on the interaction
D351H	with no effect

Variants of: B1
Conditions: with il7ra_human IL7R

Variant	effect of a mutation on the interaction
D351H	with no effect

Variants of: B1
Conditions: with irf6_human IRF6, O14896

Variant	effect of a mutation on the interaction
D351H	with no effect

Variants of: B1
Conditions: with irs1_human IRS1, P35568

Variant	effect of a mutation on the interaction
D351H	with no effect

Variants of: B1
Conditions: with jak1_human JAK1, P23458

Variant	effect of a mutation on the interaction
D351H	with no effect

Variants of: B1
Conditions: with kat2a_human KAT2A

Variant	effect of a mutation on the interaction
D351H	with no effect

Variants of: B1
Conditions: with kdm5c_human KDM5C

Variant	effect of a mutation on the interaction
D351H	with no effect

Variants of: B1
Conditions: with kdm6a_human KDM6A

Variant	effect of a mutation on the interaction
D351H	with no effect

Variants of: B1
Conditions: with vgfr2_human KDR

Variant	effect of a mutation on the interaction
D351H	with no effect
